Residue numbers refer to the chain shown, from its start.
B1: Anti-MP-22A9mut1 (antibody, mouse IgG1, kappa, V domains shown)
VH: QAYLQQSGAELVRSGASVKMSCKASGYTFTTYNMHWVKQTPGQGLEWIGYVHPGYGITYYSQKFKGKATLTADTSSSTAYMILSSLTSEDSAVYFCTRSYYGYSYWFFDVWGAGTTVTVSS
VL: NIVMTQSPKSVSMSVGERVTLNCKASENVGSYVAWYQQKPDRSPKLLIHGASNRYTGVPDRFTGSGSTTDFTLTISSVQAEDLADYHCGQTYNYPYTFGGGTKLEIKR
B2: Anti-MP-22A9mut2 (antibody, mouse IgG1, kappa, V domains shown)
VH: B1 VH with I82L
VL: B1 VL
B3: Anti-MP-22A9mut3 (antibody, mouse IgG1, kappa, V domains shown)
VH: B1 VH with L70I, I82L
VL: B1 VL
B4: Anti-MP-22A9mut4 (antibody, mouse IgG1, kappa, V domains shown)
VH: B1 VH with I82L, L86I
VL: B1 VL
B5: Anti-MP-22A9mut5 (antibody, mouse IgG1, kappa, V domains shown)
VH: B1 VH with I82L, L86I
VL: B1 VL with L73I
B6: Anti-MP-22A9mut6 (antibody, mouse IgG1, kappa, V domains shown)
VH: B1 VH with I82L, L86I
VL: B1 VL with I75L

How the values were obtained:
[1] = target: 肺炎支原体天然抗原(购自Microbix) (Mycoplasma pneumoniae); test: indirect ELISA, antigen coated at 2 ug/ml, antibody 15 ng/ml
[2] = target: 肺炎支原体天然抗原(购自Microbix) (Mycoplasma pneumoniae); test: indirect ELISA, antigen coated at 2 ug/ml, antibody 7.5 ng/ml
[3] = target: 肺炎支原体天然抗原(购自Microbix) (Mycoplasma pneumoniae); test: indirect ELISA, antigen coated at 2 ug/ml, antibody 0.94 ng/ml
[4] = target: 肺炎支原体天然抗原(购自Microbix) (Mycoplasma pneumoniae); test: indirect ELISA, antigen coated at 2 ug/ml, antibody 3.75 ng/ml
[5] = target: 肺炎支原体天然抗原(购自Microbix) (Mycoplasma pneumoniae); test: indirect ELISA, antigen coated at 2 ug/ml, antibody 1.88 ng/ml
[6] = target: 肺炎支原体天然抗原(购自Microbix) (Mycoplasma pneumoniae); test: indirect ELISA, antigen coated at 2 ug/ml, antibody 0 ng/ml (blank)

| Molecule | OD450 (参考630nm) [1] | OD450 (参考630nm) [2] | OD450 (参考630nm) [3] | OD450 (参考630nm) [4] | OD450 (参考630nm) [5] | OD450 (参考630nm) [6] |
| --- | --- | --- | --- | --- | --- | --- |
| 对照 (antibody) | 1.32 OD | 0.629 OD | 0.118 OD | 0.403 OD | 0.212 OD | 0.015 OD |
| B1 | 1.92 OD | 1.39 OD | 0.205 OD | 0.619 OD | 0.391 OD | 0.013 OD |
| B2 | 2.23 OD | 1.6 OD | 0.386 OD | 0.899 OD | 0.534 OD | 0.021 OD |
| B3 | 2.16 OD | 1.67 OD | 0.359 OD | 0.906 OD | 0.512 OD | 0.016 OD |
| B4 | 1.98 OD | 1.47 OD | 0.207 OD | 0.758 OD | 0.401 OD | 0.012 OD |
| B5 | 2.03 OD | 1.68 OD | 0.315 OD | 0.814 OD | 0.536 OD | 0.011 OD |
| B6 | 2.01 OD | 1.42 OD | 0.207 OD | 0.627 OD | 0.339 OD | 0.011 OD |
